This note sets out measurements from PMC9135701.

The target in this experiment is spGFP_(1-10/11)-MSP1D1. Nature of the experiment: SEC; purified scaffold protein without lipids; Superose 6 Increase 10/300 GL, 50 mM Tris-HCl pH 8, 100 mM NaCl, 5% glycerol; monomer (intramolecular complementation) against dimer (intermolecular complementation). (In general: SEC sorts molecules by how far they enter the pores of the column.)

One may read the stoichiometry N as a count of units in the complex or per binding partner. spGFP_(1-10/11)-MSP1D1: the percent dimeric stood at 30% and the stoichiometry N is 2.
